# Molecular target: mononucleosome assembled with an octamer lacking the H4 tail (human) (UniProt P0C0S8)
# Test: pull-down
substance,measurement,value
"HIV-1 integrase, wild type (from UniProt P12497 1148-1435) (enzyme)",percent less efficient binding than to native MN,50 to 60%
